Reference: the domain aggregation screens of Martell et al. (2025)

Test: soluble fraction after stress (log2 fold change); higher = more stays soluble; pooled small domains, quantitative proteomics
Conditions: stress: pH 4
Method in brief: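 Custom libraries of small protein domains were pooled and exposed to pH 4. High-throughput quantitative proteomics then measured the log2 fold change in the amount of each domain still soluble, with higher values meaning more stayed soluble. This soluble-fraction fold change stands for aggregation propensity.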

Compared with “HMDPEEETLKNMQRMLQDSGPLKKTEFSLLAKSLGIAEKKARKLIDRGRGRFWTVESGEQKNTQLVTPIQ”, “HMDPERVVGQTGIVHLRIPARQHNTGKVMIEVQGSLREFDAVSEAEEIPTGTPILIVGRTEEGVFIAQPF” is lower in “soluble fraction (log2)” value: -0.261 for the first, -0.823 for the second.

Compared with “HMDPGPVLISAQVLDDLEAIRRDGSSNMLDWPAVARLAEVMGMDRTAAWVRTHHREYSAGIFRGFASD”, “HMDPHEEELLRQLIRGDIAGYEVLFHKYYPTFFAFIKGMTKETVVAEDITQNIFMKVWLNRERLDAA” is higher in “soluble fraction (log2)” value: -0.744 for the first, -0.535 for the second.

Compared with “HMDPIATLTPREREVLSLMAEGRSNGAIAAALVVGDGAVEKHVSNIFQKLELTPAEGDHRRVLAVLRWLE”, “HMDPLADLFSRIRNAQMRNKKVVTSPASKLRAGILEVLAKEGYIRGYAMTQHASGKNELDIELN” is higher in “soluble fraction (log2)” value: -0.864 for the first, -0.0916 for the second.

“HMDPNAITSAQVTKLQVLANEKGFAERQARLTMWAEVIGRNVGTANELTKAEAHKLIEHMDALPV” and “HMDPNFKYIIRIANSDVSGEQKLAYALTSIRGIGERTSNAIIQKLGLDSTQLAGKLTDKNVEDIESA” are within 0.2 log units of each other in “soluble fraction (log2)” value: -0.162 for the first, -0.0403 for the second.

First: HMDPPQEVWDLTRSYLDSMNRPVHGHKSPQETYLRQVKSHRLPATALWDYFMAQRFHAVHATSESAA
Second: HMDPPYKDKNLHELLLKINNLNILKKDSVIILHRHKKQKEIFPSNFKIIEQKQYGISKIIFLTVL
The “soluble fraction (log2)” value of the first is lower: -0.364 for the first, 0.217 for the second.

“HMDPRTSSLTPQERKVLELVGGGLTNRQIAAEMFLAEKTVKNYVSSLLAKLGFERRTQAAVFIASPAF” and “HMDPSKLVEVQEPVSMKALSEGLGIKVTELIATFAFKLKIGGKNINSMLSNDEVELVALDLERNIKVV” are within 0.2 log units of each other in “soluble fraction (log2)” value: -0.0756 for the first, -0.0335 for the second.

“HMDPTEPLFVGVVTAEPYLNIREYPTTQSKDLGDLFPGMHVNVYEIVPNWYRIDDGWVASAWVKRDWGGG” and “HMDPTIRRGELIDAASRLFLSKGYAATSVRDILDEVGNRTASPSVFYYYFKSKEEIYQAVLRRHSE” are within 0.2 log units of each other in “soluble fraction (log2)” value: -0.314 for the first, -0.485 for the second.

Compared with “HMDPTVSGQTGSVVREIRPGVPGEVELSVPLYGIRRWQAMADGILAEGTRVTVIQAEGVRLSVRPV”, “HMDPTVTFIVQVNGRVRDKITLSSDISENEAKNVALESPKITPHISGKSLSRVIFVPGKLINLVV” is higher in “soluble fraction (log2)” value: -0.251 for the first, 0.162 for the second.

First: HMDPVATLTPREREVLELMAEGRTNAGIAEAMVVTEGAVEKHIQRIFAKLGLHADGGVHRRVAAVLALLG
Second: HMDQDIILHKVQPGDTLSKILLHYHSHQDRNKLQGLIAESMTANPFIKNPDLIYPGQLIQVPVPA
The “soluble fraction (log2)” value of the first is lower: -0.872 for the first, 0.124 for the second.

“HMDQFMLQSAWLRAVQHVMKHTDDVGTQFAEEARRMHYGEADERPIRGQATSDEARALHDEGIEVMALPI” and “HMDQILIHLKEGIDVTDVQPMLKALDLNVRMFNRDKNIIVISVLNRELDAIPQTIAALRPWEELFDSA” are within 0.2 log units of each other in “soluble fraction (log2)” value: -0.192 for the first, -0.184 for the second.

First: HMDQNVSVPKLAGLQVEEANAILKSKGLHIEIIDSIYQKDAVPGAIIEQVPEENSKVKKGRAIYVSVYAK
Second: HMDQVYYDLKSLIELLPADQMEVLKMRYFEELSFKKIAQKIDVSINTALGRMRYALINLRALSKKHHID
The “soluble fraction (log2)” value of the first is higher: 0.0139 for the first, -1.02 for the second.

Going from “HMDRDMGSMTDFENVRDAYLTGKVWNVGDLIEANGITGIIIRKGTNYVSYNDGDGKVHKAWLHDITL” to “HMDREILWTNYVAARKQEFIASSIDTIGAEYLDNRRFWDTQFEREWTIIAERLASGFGLTDDILSIVGSDF”, the “soluble fraction (log2)” value falls from -0.98 to -2.71.

First: HMDRETEEYELIRAKLEWLYQKQTGTIRNQTAKILHHLEIAKEEGNYYLYLKIKEEAKQWLVQASMYLD
Second: HMDRGDVTREALIKAAIEIFGRDGFHAASTRAIAERAGANQALIGYHFRGKLGLYHATFEYIIGKI
The “soluble fraction (log2)” value of the first is lower: -0.725 for the first, -0.474 for the second.

Going from “HMDRMINYSPIVAKVPQDDYTTKVYNIPIYSELTVVDKISEPEPLIAPIYRFKYITPEDEEIEFDIPV” to “HMDRMMQPETWGRVYQWITDDPQVPDREEVLTLIKYHYGDFGKLMKLLHRLNEGKAWTYLSEHIFPRM”, the “soluble fraction (log2)” value falls from -0.39 to -0.698.

“HMDRNEFVSTLRAALTGAVSPAIVEDNVRYYQNYISQEIASGKSEKEVLDGLGDPRLIARTIIDT” and “HMDRNIVYSDFIRSVNQGQVSEVLVQGDNIRGRYLNGKVFQTFAPKDPSLISTLRNKGVRISAEPA” are within 0.2 log units of each other in “soluble fraction (log2)” value: 0.14 for the first, -0.022 for the second.

Compared with “HMDRRSTTLQDIYTRIDAEEISEALELIPKLGEIEFEQNRAEIAEAAGVRPAVLDKLRKQAAKQENNKK”, “HMDRSAQVLFLEHARSRLPQRIQWAEELAELLSIGIDSAYRRIRGETALTFNEAVSVSRKYDISLDYLFK” is lower in “soluble fraction (log2)” value: -0.216 for the first, -1.4 for the second.

“HMDRSKREKEQQELMLKVQQIFDDNQQRFGAEKIRTVLAQNGVRVSVKRVSAIMQELNLRSIR” and “HMDRVMPVPEALIGMRFDIAVSRMLGVSRSQAAAYIDRGQVSIAGRGSQRSAQKSEKLVQGDSIEVAIA” are within 0.2 log units of each other in “soluble fraction (log2)” value: 0.169 for the first, 0.186 for the second.

First: HMDRWSLLTLTTLAGGTLRFTELKRAIGDISQRMLAQTLRTLEREGYVSRKVYATIPPKVEYRLTALGQSL
Second: HMDRYAVRAEELAAALAQYHRHVGVYPENLEDLIAPTGPRGYRGPYLSELPTNPSTSKPDWGYDPATGRVS
The “soluble fraction (log2)” value of the first is higher: no less than 0.43 for the first, 0.159 for the second.

Going from “HMDSAFVSDIRDAFDEAGVDSYRFFGTHSFKRGGVQLYRLLGVSDQEIKERGHWQTFSAYFAYVQA” to “HMDSESGAIIRRAVAQLAPKFRSTIVLRLIEGYSTEETAQILQLPVGTVLSRLARAKVQLMNLLTPYKEL”, the “soluble fraction (log2)” value rises from -0.303 to -0.0277.

Going from “HMDSIDIDAETKSLGPNAPQIIKGIKEWGQGLVAKGVWSDQDFEEFKVFAATANGINALNKVRKFY” to “HMDSIDVQQKKLLTDIELGNIEGIKLFLKRHNNTINFLTIKGFHPLVYAVRNNNMEIVNLFLTT”, the “soluble fraction (log2)” value rises from -0.192 to 0.159.

Going from “HMDSIGTQIRKLREEAEMPLRKLSALLDIDQSTLSKIERDERRANTQMIEQIAKIFKVNKEQLLVA” to “HMDSKPNDLLFVYVSQLIRSLTLNSSKKDSELADELEVSISQIRIWLKKLINEQLIVKESKPVKYRWKG”, the “soluble fraction (log2)” value rises from -1.98 to -0.327.

“HMDSLARKTVNGAEFYIYPVESAEGFYSLRRKFGVSQEEVIKYNPSAQNGLKSGQVLLIPVT” and “HMDSLQDFAYEEIKKRIQNGEYAPGTKLNTQEISDSLGISRSPVLAAINRLIALGLVEATPRKGTTVA” are within 0.2 log units of each other in “soluble fraction (log2)” value: 0.125 for the first, -0.0359 for the second.

“HMDSLSGQQGRVLEEINGFLQTGKVLLNGMEWSAVSKQPEDILPVDTEVVVVRVEGAHLVVKKA” and “HMDSPRITMDQLRIGLYVYLDLTWFQHPFAFSHFKINSEDQIKTILGLGLKSVRYDPALSDPV” are within 0.2 log units of each other in “soluble fraction (log2)” value: -0.488 for the first, -0.645 for the second.

Compared with “HMDSQSVFADLVKSLSQKIASIPVWFEYTKNEQYDLISSYVSAKLKDLGVEFSQEEKEKFITMFMNS”, “HMDSRQIIAALQARYADETGITALKIKFNNVLGYFVDVPARYGDPLMKPPLSETFIHRQTLASNVRF” is higher in “soluble fraction (log2)” value: -0.34 for the first, -0.0558 for the second.

First: HMDSSITLMRMYIPKGHNWENKLISDVSMPTNSLALMIKRNGTTIIPKGDTMILAKDTLILSVPSYEPS
Second: HMDSSNLSLIAGVGPTIEKKLRAAGITSWEQIAAWTEADVAKYDEELNLRGRITRDEWIEQAKELLAGKPP
The “soluble fraction (log2)” value of the first is lower: -1.86 for the first, 0.309 for the second.

“HMDSTLDLVATQGGRLDQVLAEMIPEHSRNRLQHWIKAGRVLVDGQPVLEPKHKIYGGEDLAVRVD” and “HMDSVSAVRTTHLNSYVLLLEKDGMAAATISRYIASMKGFFEYLFREHMIEEDPAFTLKPPKV” are within 0.2 log units of each other in “soluble fraction (log2)” value: 0.123 for the first, 0.0461 for the second.

Compared with “HMDSVVPNVVGMTAEKANKALTDAGLNVKITGATIGSGAVVHSQSIPAGTVTSKGTVVSIEMRFAAAEGD”, “HMDSYSILGIEKESSMEDIEKAYIDKISKIKKEVKNEKNAAAFEAVLTKAYNDILSQKENISEEQELAE” is higher in “soluble fraction (log2)” value: -0.193 for the first, 0.22 for the second.

“HMDTAGSVAIVSKSVIENGFGEIKYKGTYFKAQSDVYIPKDQMVKVIGKGDEQGSFLIVEKLN” and “HMDTIASESVRNRIEELISNENPKKPLSDQALVKMLQEFDIKIARRTVAKYREMLKIPPSSKRKQV” are within 0.2 log units of each other in “soluble fraction (log2)” value: -0.0172 for the first, 0.0429 for the second.

Going from “HMDTIGSKVLAFLAGNLLDPTPFNYRFGYLYLNRTSKVIVEETDTYIDSGMRMTQEAVAEIMQKFAQ” to “HMDTITMAGERYAVSDLEKVSGDIFEKAFGFEIDPKTADAKDVLPTMPKSDVDLFKKLSGIKP”, the “soluble fraction (log2)” value rises from -2.74 to -0.0953.

Compared with “HMDTIYPFNPNFIDDYKGYVLGLNTNEIDRLLKYRSKGNWINSAEDFKKVTGIDDALLNKLSKSFKFPDWL”, “HMDTLRPLGRYQNVHLTKQELTALQSEFSDWSERIERLSSYMASTGRKYQNHAATIRLWAEKDK” is higher in “soluble fraction (log2)” value: -0.991 for the first, 0.161 for the second.

“HMDTMINLIGLNLKKAKKELSNLGVNVKKVRYKKSSVYDEGVVIDQSIEAGRNIKNGDFITITVSSGKA” and “HMDTNEPFAQLQLRFTDPIQYDYEVIRPVVLFSQSVTDRSDETEMPRTTVREKARQFVTEGMLGLVDK” are within 0.2 log units of each other in “soluble fraction (log2)” value: -0.0745 for the first, -0.216 for the second.

Compared with “HMDTNTIIGLRIKALRTEKKYTLKYLSENSGLSIGFLSQLERGMTSVAIDSLDKISKVLDVELSSFFN”, “HMDTPMQEAVLQRLRDKVAQAAAGSKLPTVRQLIADYGVGQHVIQAALEKLRTEGLITSHVGKGTFVG” is higher in “soluble fraction (log2)” value: -0.65 for the first, 0.142 for the second.

Going from “HMDTPMYMAIIEEVRFQIANEILKEGEQLPSIRNLAKTLKVSVITVKRAYKELEEAGYITTIPAKGSKVS” to “HMDTQKYDLNDDGRFDVQDVTYLQIKIAGDGELTDNQKKIADYNNDGKIDVQDVTSAQMLIS”, the “soluble fraction (log2)” value falls from -0.167 to -0.724.

First: HMDTSADEVKQLIASFVEQEDKRKPLSDQKIVELLAEKEQKISRRTVAKYRDALNIPSSSKRKRF
Second: HMDTSISHLVGRTGEAVTDLRPAGTVMIDGELYDARATEGFIEKGEIVKAIKYQYGQLNVRRVSK
The “soluble fraction (log2)” value of the first is lower: -0.141 for the first, 0.149 for the second.

In the case of “HMDTVSYSTLLRDIDAKEIKQLDLVPGRREVRVQYNDGRRVTVPVFANDNQILRAAESSGTPLTVV”, the “soluble fraction (log2)” value is reported as 0.0175.
